{"source": "patent US20180044374A1", "key": {"[1]": {"target": "human polyclonal IgG (Gammanorm) (human)", "assay": "dynamic binding capacity; matrix C3, ligand […]", "conditions": "ligand content 5.9 mg/ml"}, "[2]": {"target": "human polyclonal IgG (Gammanorm) (human)", "assay": "dynamic binding capacity; matrix A27, ligand […]"}, "[3]": {"target": "human polyclonal IgG (Gammanorm) (human)", "assay": "dynamic binding capacity; matrix H40, ligand […]"}, "[4]": {"target": "human polyclonal IgG (Gammanorm) (human)", "assay": "dynamic binding capacity; matrix A65b, ligand […]"}, "[5]": {"target": "human polyclonal IgG (Gammanorm) (human)", "assay": "dynamic binding capacity; matrix A29, ligand 11 mg/ml"}, "[6]": {"target": "human polyclonal IgG (Gammanorm) (human)", "assay": "dynamic binding capacity; matrix B5, ligand 6.3 mg/ml"}, "[7]": {"target": "human polyclonal IgG (Gammanorm) (human)", "assay": "dynamic binding capacity; matrix B5, ligand 9.6 mg/ml"}, "[8]": {"target": "human polyclonal IgG (Gammanorm) (human)", "assay": "dynamic binding capacity; matrix C3, ligand 9.0 mg/ml"}, "[9]": {"target": "human polyclonal IgG (Gammanorm) (human)", "assay": "dynamic binding capacity; matrix A20, ligand 7.3 mg/ml"}, "[10]": {"target": "human polyclonal IgG (Gammanorm) (human)", "assay": "dynamic binding capacity; matrix A27, ligand 7.5 mg/ml"}, "[11]": {"target": "human polyclonal IgG (Gammanorm) (human)", "assay": "dynamic binding capacity; matrix A33, ligand 7.3 mg/ml"}, "[12]": {"target": "human polyclonal IgG (Gammanorm) (human)", "assay": "dynamic binding capacity; matrix A39, ligand 7.0 mg/ml"}, "[13]": {"target": "human polyclonal IgG (Gammanorm) (human)", "assay": "dynamic binding capacity; matrix C4, ligand 10.1 mg/ml"}, "[14]": {"target": "human polyclonal IgG (Gammanorm) (human)", "assay": "dynamic binding capacity; matrix H40, ligand 9.1 mg/ml"}, "[15]": {"target": "human polyclonal IgG (Gammanorm) (human)", "assay": "dynamic binding capacity; matrix A20, ligand 10.6 mg/ml"}, "[16]": {"target": "human polyclonal IgG (Gammanorm) (human)", "assay": "dynamic binding capacity; matrix A28, ligand 11.9 mg/ml"}, "[17]": {"target": "human polyclonal IgG (Gammanorm) (human)", "assay": "dynamic binding capacity; matrix A33, ligand 7.33 mg/ml"}, "[18]": {"target": "human polyclonal IgG (Gammanorm) (human)", "assay": "dynamic binding capacity; matrix A38, ligand 11.3 mg/ml"}, "[19]": {"target": "human polyclonal IgG (Gammanorm) (human)", "assay": "dynamic binding capacity; matrix A38, ligand 7.45 mg/ml"}, "[20]": {"target": "human polyclonal IgG (Gammanorm) (human)", "assay": "dynamic binding capacity; matrix A39, ligand 10.5 mg/ml"}, "[21]": {"target": "human polyclonal IgG (Gammanorm) (human)", "assay": "dynamic binding capacity; matrix A40, ligand 11.0 mg/ml"}, "[22]": {"target": "human polyclonal IgG (Gammanorm) (human)", "assay": "dynamic binding capacity; matrix A40, ligand 13.2 mg/ml"}, "[23]": {"target": "human polyclonal IgG (Gammanorm) (human)", "assay": "dynamic binding capacity; matrix A41, ligand 13.0 mg/ml"}, "[24]": {"target": "human polyclonal IgG (Gammanorm) (human)", "assay": "dynamic binding capacity; matrix A62a, ligand 6.6 mg/ml"}, "[25]": {"target": "human polyclonal IgG (Gammanorm) (human)", "assay": "dynamic binding capacity; matrix A62a, ligand 9.7 mg/ml"}, "[26]": {"target": "human polyclonal IgG (Gammanorm) (human)", "assay": "dynamic binding capacity; matrix A63a, ligand 6.1 mg/ml"}, "[27]": {"target": "human polyclonal IgG (Gammanorm) (human)", "assay": "dynamic binding capacity; matrix A65a, ligand 6.1 mg/ml"}, "[28]": {"target": "human polyclonal IgG (Gammanorm) (human)", "assay": "dynamic binding capacity; matrix A39, ligand 10.48 mg/ml"}, "[29]": {"target": "human polyclonal IgG (Gammanorm) (human)", "assay": "dynamic binding capacity; matrix A40, ligand 13.15 mg/ml"}, "[30]": {"target": "human polyclonal IgG (Gammanorm) (human)", "assay": "dynamic binding capacity; matrix A43, ligand 10.51 mg/ml"}, "[31]": {"target": "human polyclonal IgG (Gammanorm) (human)", "assay": "dynamic binding capacity; ligand 12 mg/ml, before 1 M NaOH"}, "[32]": {"target": "human polyclonal IgG (Gammanorm) (human)", "assay": "dynamic binding capacity; ligand 20 mg/ml, before 1 M NaOH"}}, "note": "Values joined by “and” are separate entries in the source; they are usually repeats but may differ in a detail not shown here. Identical values can stand only once."}
{"substance": "Zvar(Q9A, N11E, Q40V, A42K, N43A, L44I)4 (designed binder)", "values": [{"measurement": "Qb10% 2.4 min", "setting": "[1]", "result": 44, "unit": "mg/mL"}, {"measurement": "Qb10% 6 min", "setting": "[1]", "result": 52, "unit": "mg/mL"}, {"measurement": "Qb10% 2.4 min", "setting": "[2]", "result": 24.8, "unit": "mg/mL"}, {"measurement": "Qb10% 6 min", "setting": "[2]", "result": 55.6, "unit": "mg/mL"}, {"measurement": "Qb10% 2.4 min", "setting": "[3]", "result": 47, "unit": "mg/mL"}, {"measurement": "Qb10% 6 min", "setting": "[3]", "result": 52, "unit": "mg/mL"}, {"measurement": "Qb10% 2.4 min", "setting": "[4]", "result": 42, "unit": "mg/mL"}, {"measurement": "Qb10% 6 min", "setting": "[4]", "result": 46, "unit": "mg/mL"}, {"measurement": "Qb10% 2.4 min", "setting": "[5]", "result": 34.9, "unit": "mg/mL"}, {"measurement": "Qb10% 6 min", "setting": "[5]", "result": 64.7, "unit": "mg/mL"}, {"measurement": "Qb10% 2.4 min", "setting": "[6]", "result": 32, "unit": "mg/mL"}, {"measurement": "Qb10% 6 min", "setting": "[6]", "result": 38, "unit": "mg/mL"}, {"measurement": "Qb10% 2.4 min", "setting": "[7]", "result": 45, "unit": "mg/mL"}, {"measurement": "Qb10% 6 min", "setting": "[7]", "result": 47, "unit": "mg/mL"}, {"measurement": "Qb10% 2.4 min", "setting": "[8]", "result": 49, "unit": "mg/mL"}, {"measurement": "Qb10% 6 min", "setting": "[8]", "result": 62, "unit": "mg/mL"}, {"measurement": "Qb10% 2.4 min", "setting": "[9]", "result": "45 mg/mL and 45.1 mg/mL"}, {"measurement": "Qb10% 6 min", "setting": "[9]", "result": "57 mg/mL and 57.2 mg/mL"}, {"measurement": "Qb10% 2.4 min", "setting": "[10]", "result": 29.2, "unit": "mg/mL"}, {"measurement": "Qb10% 6 min", "setting": "[10]", "result": 48.7, "unit": "mg/mL"}, {"measurement": "Qb10% 2.4 min", "setting": "[11]", "result": 49, "unit": "mg/mL"}, {"measurement": "Qb10% 6 min", "setting": "[11]", "result": 56, "unit": "mg/mL"}, {"measurement": "Qb10% 2.4 min", "setting": "[12]", "result": 42, "unit": "mg/mL"}, {"measurement": "Qb10% 6 min", "setting": "[12]", "result": 55, "unit": "mg/mL"}, {"measurement": "Qb10% 2.4 min", "setting": "[13]", "result": 55, "unit": "mg/mL"}, {"measurement": "Qb10% 6 min", "setting": "[13]", "result": 63, "unit": "mg/mL"}, {"measurement": "Qb10% 2.4 min", "setting": "[14]", "result": 52, "unit": "mg/mL"}, {"measurement": "Qb10% 6 min", "setting": "[14]", "result": 67, "unit": "mg/mL"}, {"measurement": "Qb10% 2.4 min", "setting": "[15]", "result": "50.7 mg/mL and 51 mg/mL"}, {"measurement": "Qb10% 6 min", "setting": "[15]", "result": "70.1 mg/mL and 70 mg/mL"}, {"measurement": "Qb10% 2.4 min", "setting": "[16]", "result": "39.9 mg/mL and 40 mg/mL"}, {"measurement": "Qb10% 6 min", "setting": "[16]", "result": "63.8 mg/mL and 64 mg/mL"}, {"measurement": "Qb10% 2.4 min", "setting": "[17]", "result": 48.7, "unit": "mg/mL"}, {"measurement": "Qb10% 6 min", "setting": "[17]", "result": 55.8, "unit": "mg/mL"}, {"measurement": "Qb10% 2.4 min", "setting": "[18]", "result": 48, "unit": "mg/mL"}, {"measurement": "Qb10% 6 min", "setting": "[18]", "result": 73, "unit": "mg/mL"}, {"measurement": "Qb10% 2.4 min", "setting": "[19]", "result": 44.4, "unit": "mg/mL"}, {"measurement": "Qb10% 6 min", "setting": "[19]", "result": 58.2, "unit": "mg/mL"}, {"measurement": "Qb10% 2.4 min", "setting": "[20]", "result": 44, "unit": "mg/mL"}, {"measurement": "Qb10% 6 min", "setting": "[20]", "result": 65, "unit": "mg/mL"}, {"measurement": "Qb10% 2.4 min", "setting": "[21]", "result": 55, "unit": "mg/mL"}, {"measurement": "Qb10% 6 min", "setting": "[21]", "result": 74, "unit": "mg/mL"}, {"measurement": "Qb10% 2.4 min", "setting": "[22]", "result": 57, "unit": "mg/mL"}, {"measurement": "Qb10% 6 min", "setting": "[22]", "result": 71, "unit": "mg/mL"}, {"measurement": "Qb10% 2.4 min", "setting": "[23]", "result": 35, "unit": "mg/mL"}, {"measurement": "Qb10% 6 min", "setting": "[23]", "result": 62.2, "unit": "mg/mL"}, {"measurement": "Qb10% 2.4 min", "setting": "[24]", "result": 41, "unit": "mg/mL"}, {"measurement": "Qb10% 6 min", "setting": "[24]", "result": 46, "unit": "mg/mL"}, {"measurement": "Qb10% 2.4 min", "setting": "[25]", "result": 48, "unit": "mg/mL"}, {"measurement": "Qb10% 6 min", "setting": "[25]", "result": 60, "unit": "mg/mL"}, {"measurement": "Qb10% 2.4 min", "setting": "[26]", "result": 39, "unit": "mg/mL"}, {"measurement": "Qb10% 6 min", "setting": "[26]", "result": 44, "unit": "mg/mL"}, {"measurement": "Qb10% 2.4 min", "setting": "[27]", "result": 40, "unit": "mg/mL"}, {"measurement": "Qb10% 6 min", "setting": "[27]", "result": 44, "unit": "mg/mL"}, {"measurement": "Qb10% 2.4 min", "setting": "[28]", "result": 44.4, "unit": "mg/mL"}, {"measurement": "Qb10% 6 min", "setting": "[28]", "result": 64.8, "unit": "mg/mL"}, {"measurement": "Qb10% 2.4 min", "setting": "[29]", "result": 56.9, "unit": "mg/mL"}, {"measurement": "Qb10% 6 min", "setting": "[29]", "result": 71.1, "unit": "mg/mL"}, {"measurement": "Qb10% 2.4 min", "setting": "[30]", "result": 31.8, "unit": "mg/mL"}, {"measurement": "Qb10% 6 min", "setting": "[30]", "result": 58, "unit": "mg/mL"}, {"measurement": "Qb10%, 6 min, before incubation", "setting": "[31]", "result": 78, "unit": "mg/mL"}, {"measurement": "Qb10%, 6 min, before incubation", "setting": "[32]", "result": 73, "unit": "mg/mL"}]}
